According to IntAct's records for PubMed 12600646:

Target: RNF216, Q9NWF9-3
Sequence (Q9NWF9 379-866): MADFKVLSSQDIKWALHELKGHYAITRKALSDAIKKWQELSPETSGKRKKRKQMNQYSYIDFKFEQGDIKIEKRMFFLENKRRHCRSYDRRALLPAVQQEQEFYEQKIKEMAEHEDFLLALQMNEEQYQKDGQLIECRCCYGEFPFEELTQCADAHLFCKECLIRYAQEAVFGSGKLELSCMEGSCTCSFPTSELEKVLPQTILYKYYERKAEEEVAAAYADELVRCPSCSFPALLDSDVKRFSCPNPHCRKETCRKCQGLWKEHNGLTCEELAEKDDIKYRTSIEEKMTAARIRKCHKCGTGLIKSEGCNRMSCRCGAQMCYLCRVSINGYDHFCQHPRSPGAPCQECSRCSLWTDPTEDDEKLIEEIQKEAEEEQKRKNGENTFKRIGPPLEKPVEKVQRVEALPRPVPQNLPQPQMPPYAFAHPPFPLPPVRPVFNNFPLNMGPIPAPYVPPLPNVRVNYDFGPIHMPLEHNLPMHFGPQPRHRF

Virion infectivity factor (Human immunodeficiency virus type 1 group M subtype B (isolate NY5) (HIV-1)), P12504 Q105A;L106A;I107A
effect of a mutation on the interaction: disrupting interaction
